{
  "source": "patent US9644034B2",
  "about": "“Anti-RSPO2 antibodies and uses thereof” (OncoMed Pharmaceuticals, Inc., priority 2011, dated 2017)",
  "molecules": {"B1": {"name": "LGR5-Fc: soluble fusion protein: amino acids 22-564 of human LGR5 ligated to human Fc (protein)", "chain": "GSSPRSGVLLRGCPTHCHCEPDGRMLLRVDCSDLGLSELPSNLSVFTSYLDLSMNNISQLLPNPLPSLRFLEELRLAGNALTYIPKGAFTGLYSLKVLMLQNNQLRHVPTEALQNLRSLQSLRLDANHISYVPPSCFSGLHSLRHLWLDDNALTEIPVQAFRSLSALQAMTLALNKIHHIPDYAFGNLSSLVVLHLHNNRIHSLGKKCFDGLHSLETLDLNYNNLDEFPTAIRTLSNLKELGFHSNNIRSIPEKAFVGNPSLITIHFYDNPIQFVGRSAFQHLPELRTLTLNGASQITEFPDLTGTANLESLTLTGAQISSLPQTVCNQLPNLQVLDLSYNLLEDLPSFSVCQKLQKIDLRHNEIYEIKVDTFQQLLSLRSLNLAWNKIAIIHPNAFSTLPSLIKLDLSSNLLSSFPITGLHGLTHLKLTGNHALQSLISSENFPELKVIEMPYAYQCCAFGVCENAYKISNQWNKGDNSSMDDLHKKDAGMFQAQDERDLEDFLLDFEEDLKALHSVQCSPSPGPFKPCEHLLDGWLIRIGV", "modifications": "left off: a dimerising Fc or GST", "notes": "soluble fusion protein: amino acids 22-564 of human LGR5 ligated to human Fc"}},
  "assay_type_in_all_cases": "cell-based, human",
  "key": {"β-catenin signaling [1]": {"tested_on": "β-catenin signaling", "test": "6xTCF-luciferase reporter assay in STF-293 cells with lung tumor cell-conditioned medium (LT)", "conditions": "Fc proteins 10 μg/ml, antibodies 40 μg/ml", "experimental": "To prepare cell suspensions, fresh human lung adenocarcinoma xenograft tumors (lung tumor #1 in Table 2) propagated in NOD/SCID mice were minced and digested in medium 199 (Invitrogen, Carlsbad, Calif.) containing 300 U/ml collagenase type 3 (Worthington, Lakewood, N.J.) and 200 U/ml DNase I (Worthington, Lakewood, N.J.) for 1 to 2 hours at 37° C. The lung tumor cells were filtered through a 40 μm nylon strainer (BD Falcon, Franklin Lakes, N.J.), and spun down at 82×g for 5 minutes. Red blood cells were lysed in ACK buffer (0.8% ammonium chloride, 0.1 mM EDTA, 10 mM sodium bicarbonate, […]), washed, and centrifuged at 150×g for 5 minutes in medium consisting of HBSS (Mediatech, Manassas, Va.), 25 mM HEPES buffer (Mediatech, Manassas, Va.) and 2% heat-inactivated fetal bovine serum (HI-FBS; Invitrogen, Carlsbad, Calif.). Dead cells and debris were removed by centrifugation on a cushion of HI-FBS at 82×g for 8 minutes. […]\nSTF-293 cells are stably transfected with a 6×TCF-luciferase reporter vector. […] The cells were incubated for 16 hours and luciferase activity was measured using Steady-Glo® Luciferase Assay System according to the manufacturer's instructions (Promega, Madison, Wis.). […]"}, "β-catenin signaling [2]": {"tested_on": "β-catenin signaling", "test": "Co-culture 6xTCF-luciferase assay in STF-293 cells with lung (LU2, LU25) and ovarian (OV38) tumor cells and supernatants", "conditions": "tumor cells LU2, LU25, OV38; 10 μg/ml", "experimental": "Similar experiments were undertaken using co-culture assays using lung tumor cell-conditioned medium and ovarian tumor cell-conditioned medium. As described above, freshly processed tumor cells depleted of stroma cells were cultured overnight. Culture medium and cells were transferred to STF-293 cells with or without Wnt3a L-cell-conditioned medium. LGR5-Fc fusion protein, a FZD8-Fc fusion protein, or a control Fc fusion protein was added (10 μg/ml). The cells were incubated for 20 hours and luciferase activity was measured as described above."}, "β-catenin signaling [3]": {"tested_on": "β-catenin signaling", "test": "Luciferase assay in STF-293 cells with LU2 cells, lung tumor cell-conditioned medium and Wnt3a-L cell-conditioned medium", "conditions": "increasing concentrations, 50 to 0.0006 μg/ml", "experimental": "Conditioned medium from human lung tumor LU2 cells was prepared as described in Example 3 and soluble LGR5-Fc was produced as described in Example 2.\nSTF-293 cells were incubated with LU2 cells plus 25% lung tumor cell-conditioned medium plus 25% Wnt3a-L cell-conditioned medium. Antibody 130M23 and soluble LGR5-Fc were added to the cells in 5-fold serially dilutions from 50 μg/ml to 0.0006 μg/ml. An irrelevant monoclonal antibody, similarly diluted, and a control Fc fusion protein (50 ug/ml) were used as negative controls. The cells were incubated for 20 hours and luciferase activity was measured using Steady-Glo® Luciferase Assay System according to the manufacturer's instructions (Promega, Madison, Wis.)."}, "β-catenin signaling [4]": {"tested_on": "β-catenin signaling", "test": "TOPflash luciferase assay in HEK-293 cells: inhibition of RSPO activity by soluble LGR5", "conditions": "LGR5-Fc 20 to 0.02 μg/ml; controls 20 μg/ml", "experimental": "Conditioned medium from human lung tumor #1 cells was prepared as described in Example 3 and soluble LGR5-Fc and RSPO2-Fc were produced as described in Example 2.\nHEK-293 cells were transfected with a 6×TCF-luciferase reporter vector (TOPflash, Millipore, Billerica, Mass.). After 24-48 hrs, the transfected cells were incubated with medium containing 25% lung tumor cell-conditioned medium plus 25% Wnt3a-L cell-conditioned medium or medium containing RSPO2 (1 Ong/ml) plus 25% Wnt3a-L cell-conditioned medium. Soluble LGR5 was added to the cells in 4-fold serially dilutions at 20 μg/ml to 0.02 μg/ml. Soluble Jag-Fc protein was used as a negative control at 20 μg/ml and FZD8-Fc protein was used as a positive control at 20 μg/ml. The cells were incubated for 16 hours and luciferase activity was measured using Steady-Glo® Luciferase Assay System according to the manufacturer's instructions (Promega, Madison, Wis.)."}},
  "data": [
    {"molecule": "B1", "values": [
      {"measurement": "inhibition of the LT activity potentiating Wnt3a-induced β-catenin activity", "setting": "β-catenin signaling [1]; LT plus Wnt3a L-cell-conditioned medium", "result": "inhibited"},
      {"measurement": "inhibition of LT medium-induced β-catenin signaling", "setting": "β-catenin signaling [1]; absence of Wnt3a", "result": "reducing the response to almost control levels"},
      {"measurement": "reduction of tumor-derived β-catenin activity", "setting": "β-catenin signaling [2]", "result": "strongly reduced"},
      {"measurement": "induction of luciferase activity by lung tumor cell-conditioned medium and Wnt3a-conditioned medium", "setting": "β-catenin signaling [3]", "result": "reduced"},
      {"measurement": "induction of luciferase activity by RSPO2-Fc plus Wnt3a-conditioned medium", "setting": "β-catenin signaling [4]", "result": "reduced"},
      {"measurement": "induction of luciferase activity by lung tumor cell-conditioned medium and Wnt3a-conditioned medium", "setting": "β-catenin signaling [4]", "result": "reduced"}
    ]}
  ]
}
